Experimental data published in patent publication US20250154199A1.

Target: Slack KNa channel, wildtype (Slack-B subunit), recombinantly expressed in CHO cells
Experiment: cell-based or functional assay

membrane currents of Slack-B on co-expression with Magi-1: 2 fold
Substance: Magi-1 (Membrane-Associated Guanylate Kinase 1), recombinantly expressed in CHO cells
